Test results reported in doi:10.1101/2025.03.12.642685.
Several values for one entry are separate records, joined by “and”; a condition that tells them apart may be missing. Equal values may be shown once.

Key:
[1] = biological target: PorK (P. gingivalis (endogenous in P. gingivalis W50 EK18)); assay: cryo-EM structure
[2] = biological target: PorN (P. gingivalis (endogenous in P. gingivalis W50 EK18)); assay: cryo-EM structure

Substance | stoichiometry N [1] | stoichiometry N [2]
PorK (natural protein) | 31 to 35 (2×) and 33 | –
PorN (natural protein) | – | 31 to 35 (2×) and 33
